Reference: paper PMC7771966, “Quantitative glycoproteomics reveals cellular substrate selectivity of the ER protein quality control sensors UGGT1 and UGGT2” (eLife, 2020)

Target: T1, glutathione S-transferase-calreticulin (GST-CRT) (UniProt P15253 18-418)
T1 construct: calreticulin from the plasmid pGEX-3X-GST-CRT (Baksh and Michalak, 1991; from M. Michalak); also called WT GST-CRT; GST-CRT-WT; source: E. coli BL21, purified (glutathione sepharose)
T1 sequence (looked up): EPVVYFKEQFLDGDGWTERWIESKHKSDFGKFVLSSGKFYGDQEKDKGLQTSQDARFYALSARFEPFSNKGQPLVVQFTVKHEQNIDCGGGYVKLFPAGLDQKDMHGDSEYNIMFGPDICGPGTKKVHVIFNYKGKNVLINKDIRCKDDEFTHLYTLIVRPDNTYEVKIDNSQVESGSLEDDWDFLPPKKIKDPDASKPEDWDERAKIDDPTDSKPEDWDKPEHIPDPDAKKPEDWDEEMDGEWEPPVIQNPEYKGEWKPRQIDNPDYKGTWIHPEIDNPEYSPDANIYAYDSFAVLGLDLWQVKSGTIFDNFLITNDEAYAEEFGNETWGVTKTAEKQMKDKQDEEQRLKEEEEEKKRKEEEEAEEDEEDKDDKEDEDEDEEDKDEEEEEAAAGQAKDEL
Assay: pull-down; GST-CRT or GST-CRT-Y109A on glutathione beads, 16 h at 4 C with lysate (MNT: 20 mM MES, 100 mM NaCl, 30 mM Tris pH 7.5, 0.5% Triton X-100, protease inhibitors, 20 mM NEM) of ALG6-/-, ALG6/UGGT1-/- or ALG6/UGGT2-/- HEK293-EBNA1-6E cells treated with 500 uM DNJ for 14 h; immunoblot; percent reglucosylation = (GST-CRT lane minus Y109A lane) / total in whole cell lysate x 100
Conditions: one partner purified

Binder | percent reglucosylation (bound by GST-CRT minus GST-CRT-Y109A, of the total in the lysate), ALG6/UGGT2-/- cells
ectonucleotide pyrophosphatase/phosphodiesterase family member 1 (ENPP1) (enzyme, human (endogenous in HEK293-EBNA1-6E), UniProt P22413 1-925, looked up, monoglucosylated N-glycans (reglucosylated by the UGGTs; sites not stated), ectonucleotide pyrophosphatase/phosphodiesterase family member 1, human, endogenous; source: endogenous, lysate of CRISPR-edited HEK293-EBNA1-6E cells (ALG6-/- background), DNJ treated) MERDGCAGGGSRGGEGGRAPREGPAGNGRDRGRSHAAEAPGDPQAAASLLAPMDVGEEPLEKAARARTAKDPNTYKVLSLVLSVCVLTTILGCIFGLKPSCAKEVKSCKGRCFERTFGNCRCDAACVELGNCCLDYQETCIEPEHIWTCNKFRCGEKRLTRSLCACSDDCKDKGDCCINYSSVCQGEKSWVEEPCESINEPQCPAGFETPPTLLFSLDGFRAEYLHTWGGLLPVISKLKKCGTYTKNMRPVYPTKTFPNHYSIVTGLYPESHGIIDNKMYDPKMNASFSLKSKEKFNPEWYKGEPIWVTAKYQGLKSGTFFWPGSDVEINGIFPDIYKMYNGSVPFEERILAVLQWLQLPKDERPHFYTLYLEEPDSSGHSYGPVSSEVIKALQRVDGMVGMLMDGLKELNLHRCLNLILISDHGMEQGSCKKYIYLNKYLGDVKNIKVIYGPAARLRPSDVPDKYYSFNYEGIARNLSCREPNQHFKPYLKHFLPKRLHFAKSDRIEPLTFYLDPQWQLALNPSERKYCGSGFHGSDNVFSNMQALFVGYGPGFKHGIEADTFENIEVYNLMCDLLNLTPAPNNGTHGSLNHLLKNPVYTPKHPKEVHPLVQCPFTRNPRDNLGCSCNPSILPIEDFQTQFNLTVAEEKIIKHETLPYGRPRVLQKENTICLLSQHQFMSGYSQDILMPLWTSYTVDRNDSFSTEDFSNCLYQDFRIPLSPVHKCSFYKNNTKVSYGFLSPPQLNKNSSGIYSEALLTTNIVPMYQSFQVIWRYFHDTLLRKYAEERNGVNVVSGPVFDFDYDGRCDSLENLRQKRRVIRNQEILIPTHFFIVLTSCKDTSQTPLHCENLDTLAFILPHRTDNSESCVHGKHDSSWVEELLMLHRARITDVEHITGLSFYQQRKEPVSDILKLKTHLPTFSQED | 12%
β-hexosaminidase subunit β (HexB), immature ER-localized proHexB (enzyme, human (endogenous in HEK293-EBNA1-6E), UniProt P07686 43-556, looked up, monoglucosylated N-glycans (reglucosylated by the UGGTs; sites not stated), beta-hexosaminidase subunit beta, human, endogenous; the immature or ER-localized pro form, not yet processed into three chains; By immunoblot only proHexB was purified by GST-CRT; source: endogenous, lysate of CRISPR-edited HEK293-EBNA1-6E cells (ALG6-/- background), DNJ treated) ARAPSVSAKPGPALWPLPLLVKMTPNLLHLAPENFYISHSPNSTAGPSCTLLEEAFRRYHGYIFGFYKWHHEPAEFQAKTQVQQLLVSITLQSECDAFPNISSDESYTLLVKEPVAVLKANRVWGALRGLETFSQLVYQDSYGTFTINESTIIDSPRFSHRGILIDTSRHYLPVKIILKTLDAMAFNKFNVLHWHIVDDQSFPYQSITFPELSNKGSYSLSHVYTPNDVRMVIEYARLRGIRVLPEFDTPGHTLSWGKGQKDLLTPCYSRQNKLDSFGPINPTLNTTYSFLTTFFKEISEVFPDQFIHLGGDEVEFKCWESNPKIQDFMRQKGFGTDFKKLESFYIQKVLDIIATINKGSIVWQEVFDDKAKLAPGTIVEVWKDSAYPEELSRVTASGFPVILSAPWYLDLISYGQDWRKYYKVEPLDFGGTQKQKQLFIGGEACLWGEYVDATNLTPRLWPRASAVGERLWSSKDVRDMDDAYDRLTRHRCRMVERGIAAQPLYAGYCNHENM | 20%
